Laboratory results: publication PMC10805794

Columns and labels:
[1] = target: ancestral spike antigen (Sanofi SARS-CoV-2 recombinant prefusion spike trimer, Wuhan Hu-1) (SARS-CoV-2 (Wuhan Hu-1) | bacteriophage T4) (UniProt P0DTC2); assay: SEC; Superose-6 column, analytical HPLC; antigens at 3 mg/mL stored at 4 °C for several weeks (cold stored) and an aliquot incubated at 37 °C for one day
[2] = target: Beta spike antigen (Sanofi SARS-CoV-2 recombinant prefusion spike trimer, B.1.351 variant) (SARS-CoV-2 (B.1.351, Beta) | bacteriophage T4) (UniProt P0DTC2); assay: as above

Substance	stoichiometry N [1]	stoichiometry N [2]
ancestral spike antigen (Sanofi SARS-CoV-2 recombinant prefusion spike trimer, Wuhan Hu-1) (from UniProt P0DTC2 14-1213) (complex)	3	
Beta spike antigen (Sanofi SARS-CoV-2 recombinant prefusion spike trimer, B.1.351 variant) (from UniProt P0DTC2 14-1213) (complex)		3
